Measurements reported in patent publication US20190218553, “VON WILLEBRAND FACTOR (VWF)-TARGETING AGENTS AND METHODS OF USING THE SAME” (DUKE UNIVERSITY, published 2019).

Key:
[1] = target: T1, von Willebrand factor (VWF) (Homo sapiens, UniProt P04275 P04275:764-2813); assay: filter; NB; 2 mM CaCl2, 37 C; details: Haematologic Technologies Inc, label: 5'-32P
Protocol: (§1) Affinity constants (Kd values) were determined using double-filter nitrocellulose filter binding assays (Rusconi et al, Thromb. Haemost. $4:841-848 (2000)). All binding studies were performed in binding buffer F (20 mM HEPES, pH 7.4, 150 mM NaCl, 2 mM CaCl₂, and 0.01% BSA) at 37° C. Human purified VWF (factor VIII free) was purchased from Haematologic Technologies Inc. (Essex Junction, Vt.) and used in the double-filter nitrocellulose filter binding assay to determine the Kd of the aptamers. Briefly, RNA were end-labeled at the 5′ end with T4 polynucleotide kinase (New England Biolabs, Beverly, Mass.) and [γ³²P] ATP (Amersham Pharmacia Biotech, Piscataway, N.J.) (Fitzwater and Polisky, Methods Enzymol. 267:275-301 (1996)). End-labeled RNA was diluted in binding buffer F, heat denatured at 65° C. for 5 minutes, and subsequently equilibrated at 37° C. Direct binding was performed by incubating trace ³²P-RNA with varying concentrations of VWF protein in binding buffer F at 37° C. for 5 min. The fraction of the nucleic acid-protein complex which bound to the nitrocellulose membrane was quantified with a phosphorimager (Molecular Dynamics, Sunnyvale, Calif.). Non-specific binding of the radiolabeled nucleic acid was subtracted out of the binding such that only specific binding remained (Wong and Lohman, Proc. Natl. Acad. Sci. USA 90:5428-5432 (1993)).

[2] = target: T1, von Willebrand factor (VWF); assay: filter; Bmax 76%; 2 mM CaCl2, 37 C; details: Haematologic Technologies Inc, label: 5'-32P
Protocol: as §1

[3] = target: T1, von Willebrand factor (VWF); assay: filter; NB; loop CAGA mutated; 2 mM CaCl2, 37 C; details: tags: factor VIII free, Haematologic Technologies Inc; label: 5'-32P
Protocol: as §1

[4] = target: T1, von Willebrand factor (VWF); assay: filter; Bmax 85%; 2 mM CaCl2, 37 C; details: Haematologic Technologies Inc, label: 5'-32P
Protocol: as §1

[5] = target: T1, von Willebrand factor (VWF); assay: filter; Bmax 61%; 2 mM CaCl2, 37 C; details: tags: factor VIII free, Haematologic Technologies Inc; label: 5'-32P
Protocol: as §1

[6] = target: T1, von Willebrand factor (VWF); assay: filter; Bmax 77%; 2 mM CaCl2, 37 C; details: Haematologic Technologies Inc, label: 5'-32P
Protocol: as §1

[7] = tags: factor VIII free human purified VWF

ACGAACUGCCCUACGCACAGACGU (ssRNA, 2'-F C and U; 2'-OH A and G; 3' idT) [T56]
binding result ([1]; tags: factor VIII free): no binding

ACGAACUGCCCUCGAUCGACGCACAGACGU (ssRNA, rAfCrGmAmAmCfUrGfCfCfCfUmCmGmAmUmCmGrAfCrGfCrAmCmAmGmAfCrGfU-idT) [T59 vrt1]
Kd ([2]; tags: factor VIII free): 1.5 nM

ACGAACUGCCCUCUUUCAUGACGCACCCCCGU (ssRNA, 2'-F C and U; 2'-OH A and G; 3' idT) [T98]
binding result [3]: no binding

ACGAACUGCCCUCUUUUUUGACGCACCCCCGU (ssRNA, 2'-F C and U; 2'-OH A and G; 3' idT) [T101]
binding result [3]: no binding

B1: T87 vrt1 (ssRNA)
RNA: ACGAACUGCCCUCUUUCAUGACGCACAGACGU
modifications: 2'-F C2,U7,C9,C10,C11,U12,C22,C24,C30,U32; ribo A1,G3,G8,A21,G23,A25,G31; rest 2'-OMe; 3' idT
Kd [4, 7]: 1.5 nM

ACGAACUGCCCUCGCUACUUUCAUGUUGCGACGCACAGACGU (ssRNA, 2'-F C and U; 2'-OH A and G; 3' idT) [T34]
Kd [5]: 10 nM

ACGAACUCCCUCGAUUAUUCGACGACAGACGU (ssRNA, 2'-F C and U; 2'-OH A and G; 3' idT) [T62]
binding result ([1]; tags: factor VIII free): no binding

ACGAACUGCCCUCUAUUAUUUGACGCACAGACGU (ssRNA, 2'-F C and U; 2'-OH A and G; 3' idT) [T90]
Kd ([6]; tags: factor VIII free): 3.8 nM

ACGAACUGCCCUCUAUUAUUUGACGCACAGACGU (ssRNA, 2'-F C9,C10,C11,C24,C26; ribo G25; rest 2'-OMe; 3' idT) [T90 vrt4]
Kd [4, 7]: 10.2 nM

ACGAACUGCCCCGCACAGACGU (ssRNA, 2'-F C and U; 2'-OH A and G; 3' idT) [T61]
binding result ([1]; tags: factor VIII free): no binding

ACGAACUGCCCUCGAUCGACGCACAGACGU (ssRNA, mAmCmGmAmAmCfUmGfCfCfCmUmCmGmAmUmCmGmAfCmGfCmAmCmAmGmAmCmGfU-idT) [T59 vrt5]
Kd [5]: 260 nM

GGGAGGUGGACGAACUGCCCUACGCACAGACGACUCGCUG (ssRNA, 2'-F C and U; 2'-OH A and G) [T17]
binding result ([1]; tags: factor VIII free): no binding

GGGAGGUCAGCUACUUUCAUGUUGCUGA (ssRNA, 2'-F C and U; 2'-OH A and G) [T14]
binding result ([1]; tags: factor VIII free): no binding

ACGAACUGCCCUCAGCUACUUUCAUGUUGCUGACGCACAACGU (ssRNA, 2'-F C and U; 2'-OH A and G; 3' idT) [T53]
binding result ([1]; tags: factor VIII free): no binding

ACGAACUGCCCUCAGCUACUUUCAUGUUGCUGACGCACGACGU (ssRNA, 2'-F C and U; 2'-OH A and G; 3' idT) [T54]
binding result ([1]; tags: factor VIII free): no binding

ACGAACUGCCCUCGAUCGACGCACAGACGU (ssRNA, rAfCrGmAmAmCfUrGfCfCfCfUmCmGmAmUmCmGrAfCmGfCrAmCmAmGmAfCrGfU-idT) [T59 vrt13]
Kd ([2]; tags: factor VIII free): 29 nM

ACGAACUGCCCUUUAUACGCACAGACGU (ssRNA, 2'-F C and U; 2'-OH A and G; 3' idT) [T65]
binding result ([1]; tags: factor VIII free): no binding

ACGAACUGCCCUCGUUUCAUCGACGCACAGACGU (ssRNA, 2'-F C9,C10,C11,C24,G25,C26,U34; rest 2'-OMe; 3' idT) [T86 vrt6]
Kd [4, 7]: 52 nM

ACGAACUGCCCUCGCGACGCACAGACGU (ssRNA, 2'-F C and U; 2'-OH A and G; 3' idT) [T58]
binding result ([1]; tags: factor VIII free): no binding

ACGAACUGCUCGAUUAUUCGAGCACAGACGU (ssRNA, 2'-F C and U; 2'-OH A and G; 3' idT) [T66]
binding result ([1]; tags: factor VIII free): no binding

ACGAACUGCCCUCGAUCGACGCACAGACGUACCCG (ssRNA, 2'-F C and U; 2'-OH A and G; 3' idT) [T82]
Kd ([2]; tags: factor VIII free): 5.3 nM

ACGAACUGCCCUCGAUCGACGCACAGACGUAAAAA (ssRNA, 2'-F C and U; 2'-OH A and G; 3' idT) [T83]
Kd [5]: 3.5 nM

B2: T82 vrt1 (ssRNA)
RNA: ACGAACUGCCCUCGAUCGACGCACAGACGUACCCG
modifications: 2'-F C2,U7,C9,C10,C11,U12,C20,C22,C28,U30; ribo A1,G3,G8,A19,G21,A23,G29; rest 2'-OMe; 3' idT
Kd [2, 7]: 3.8 nM

ACGAACUGCCCUCGAUCGACGCACAGACGUAAAAA (ssRNA, 2'-F C9,C10,C11,C20,C22; ribo G21; rest 2'-OMe; 3' idT) [T83 vrt4]
Kd [6, 7]: 20 nM

ACGAACUGCCCUCGAUCGACGCACAGACGUACACG (ssRNA, 2'-F C9,C10,C11,C20,C22; ribo G21; rest 2'-OMe; 3' idT) [T84 vrt4]
Kd [6, 7]: 22 nM

ACGAACUGCCCUCGAUCGACGCACAGACGUACACG (ssRNA, 2'-F C and U; 2'-OH A and G; 3' idT) [T84]
Kd ([2]; tags: factor VIII free): 3.7 nM

B3: T19 (ssRNA)
RNA: GGGAGGUGGACGAACUGCCCUCUUUCAUGUUGCUGACGCACAGACGACUCGCUG
modifications: 2'-F C and U; 2'-OH A and G
binding result ([1]; tags: factor VIII free): no binding

ACGAACUGCCCUCGAUCGACGCACAGACGU (ssRNA, 2'-F U7,C9,C10,C11,U12,C20,C22,U30; ribo A23; rest 2'-OMe; 3' idT) [T59 vrt21]
Kd [4, 7]: 27 nM

ACGAACUGCCCUCUUUUUUUUGACGCACCCCCGU (ssRNA, 2'-F C and U; 2'-OH A and G; 3' idT) [T96]
binding result [3]: no binding

ACGAACUGCCCUCUAUUAUUUGACGCACCCCCGU (ssRNA, 2'-F C and U; 2'-OH A and G; 3' idT) [T99]
binding result [3]: no binding

ACGAACUGCCCUCGUUUCAUCGACGCACCCCCGU (ssRNA, 2'-F C and U; 2'-OH A and G; 3' idT) [T97]
binding result [3]: no binding

ACGAACUGCCCUCGUUAUCGACGCACAGACGU (ssRNA, 2'-F C and U; 2'-OH A and G; 3' idT) [T71]
Kd ([6]; tags: factor VIII free): 10 nM

ACGACUGCCCUCAGCUACUUUCAUGUUGCUGACGCACACGU (ssRNA, 2'-F C and U; 2'-OH A and G; 3' idT) [T55]
binding result ([1]; tags: factor VIII free): no binding

B4: T13 (ssRNA)
RNA: GGGAGGUGCCCUCAGCUACUUUCAUGUUGCUGACGCACAGACGACUCGCUG
modifications: 2'-F C and U; 2'-OH A and G
binding result ([1]; tags: factor VIII free): no binding

ACGAACUGCCCUCGAUCGACGCACAGACGUUUUUU (ssRNA, mAmCmGmAmAmCmUmGfCfCfCmUmCmGmAmUmCmGmAfCfGfCmAmCmAmGmAmCmGfUmUmUmUmUmU-idT) [T79 vrt6]
Kd [5]: 60.5 nM

ACGAACUGCCCUCGAUCGACGCACAGACGUAAA (ssRNA, 2'-F C and U; 2'-OH A and G; 3' idT) [T80]
Kd ([6]; tags: factor VIII free): 6.3 nM

B5: T20 (ssRNA)
RNA: GGGAGGUGGACGAACUGCCCUCUACUUUCAUGUUGACGCACAGACGACUCGCUG
modifications: 2'-F C and U; 2'-OH A and G
binding result ([1]; tags: factor VIII free): no binding

ACGAACUGCCCUCGAUCGACGCACAGACGU (ssRNA, 2'-F U7,C9,C10,C11,U12,C20,C22,U30; ribo G21; rest 2'-OMe; 3' idT) [T59 vrt23]
Kd [6, 7]: 1.7 nM

ACGAAAUGGAAUCGUAAGAACCACAGACGUUUUUU (ssRNA, all 2'-OMe; 3' idT) [DTRI-022]
binding result [1, 7]: no binding

ACGAACUGCCCUCGAUCGACGCACAGACGU (ssRNA, rAfCrGmAmAmCfUrGfCfCfCfUmCmGmAmUmCmGrAfCrGfCmAmCmAmGmAfCrGfU-idT) [T59 vrt12]
Kd ([4]; tags: factor VIII free): 6.9 nM

ACGAACUGCCCUCUAUUUCAUUUGACGCACAGACGU (ssRNA, 2'-F C and U; 2'-OH A and G; 3' idT) [T93]
Kd ([2]; tags: factor VIII free): 6.4 nM

ACGAACUGCCCUCUAUUUCAUUUGACGCACAGACGU (ssRNA, 2'-F C9,C10,C11,C26,G27,C28; rest 2'-OMe; 3' idT) [T93 vrt7]
Kd [2, 7]: 20 nM

ACGAACUGCCCUCGUAUUAUUUCGACGCACAGACGU (ssRNA, 2'-F C9,C10,C11,C26,C28; ribo G27; rest 2'-OMe; 3' idT) [T89 vrt4]
Kd [4, 7]: 8.4 nM

ACGAACUGCCCUCGAUCGACGCACAGACGU (ssRNA, 2'-F C10,C11,C20,C22,U30; ribo G21; rest 2'-OMe; 3' idT) [T59 vrt29]
Kd [2, 7]: 19 nM

ACGAACUGCCCUCGCACUUAUGUGCGACGCACAGACGU (ssRNA, 2'-F C and U; 2'-OH A and G; 3' idT) [T50]
Kd [5]: 9.6 nM

ACGAACUGCCCUCGAUUAUUCGACCACAGACGU (ssRNA, 2'-F C and U; 2'-OH A and G; 3' idT) [T67]
binding result ([1]; tags: factor VIII free): no binding
